The values that follow come from PMC8287583, “Biochemical and Phylogenetic Characterization of a Novel NADP^+-Specific Isocitrate Dehydrogenase From the Marine Microalga Phaeodactylum tricornutum” (Frontiers in Molecular Biosciences, 2021).

Data set [1] deals with PtIDH2 V609L mutant (Phaeodactylum tricornutum CCAP 1055/1). Put plainly: SEC; mutant forms of PtIDH2, Superdex 200 (10/300), 0.5 ml/min; salt of the buffer not stated for this panel. For orientation: In gel filtration, larger molecules generally elute earlier.
Data set [2] deals with Phaeodactylum tricornutum NADP+-specific isocitrate dehydrogenase 2 (PtIDH2), mature form without the signal and transit peptide (Phaeodactylum tricornutum CCAP 1055/1). In words: SEC; Superdex 200 (10/300) Increase, 0.5 ml/min, 20 mM Tris-HCl, 10% glycerol, pH 7.5, 1,000 mM NaCl (high salt); sample incubated in that buffer before chromatography; tetramer to dimers.
Data set [3] shares this target. Put plainly: SEC; Superdex 200 (10/300) Increase, 0.5 ml/min, 20 mM Tris-HCl, 10% glycerol, pH 7.5, 300 mM NaCl (low salt); calibrated with five protein standards.
For data set [4] the target is unchanged. Put plainly: SEC-MALS; Superdex 200 (10/300) Increase, 0.5 ml/min, 20 mM Tris-HCl, 10% glycerol, 300 mM NaCl, pH 7.5.
Data set [5] deals with PtIDH2 A718P mutant (Phaeodactylum tricornutum CCAP 1055/1). In words: SEC; mutant forms of PtIDH2, Superdex 200 (10/300), 0.5 ml/min; salt of the buffer not stated for this panel.
The target of data set [6] is PtIDH2 L742F mutant (Phaeodactylum tricornutum CCAP 1055/1). Described as above.
Substrate in data set [7]: O=C(O)CC(C(=O)O)C(O)C(=O)O
Put plainly: purified protein. The format is biochemical, Phaeodactylum tricornutum. As to conditions: Mn2+ 2.0 mM, 0.5 mM NADP+ fixed, 50 mM Tris-HCl pH 8.0, 25 °C, DL-isocitrate used.

Substrate in data set [8]: NC(=O)c1ccc[n+]([C@@H]2O[C@H](COP(=O)(O)OP(=O)(O)OC[C@H]3O[C@@H](n4cnc5c(N)ncnc54)[C@H](OP(=O)(O)O)[C@@H]3O)[C@@H](O)[C@H]2O)c1
Put plainly: purified protein. As to conditions: 50 mM Tris-HCl pH 8.0, 25 °C. The format is biochemical, Phaeodactylum tricornutum.

Substrate in data set [9]: NC(=O)c1ccc[n+]([C@@H]2O[C@H](COP(=O)(O)OP(=O)(O)OC[C@H]3O[C@@H](n4cnc5c(N)ncnc54)[C@H](O)[C@@H]3O)[C@@H](O)[C@H]2O)c1
In words: purified protein. It is filed as biochemical, Phaeodactylum tricornutum. As to conditions: DL-isocitrate, 50 mM Tris-HCl pH 8.0, 25 °C, metal not given (wild-type is the Mn2+ value).

Where [10] appears, read: Mn2+ 2.0 mM, 1.0 mM DL-isocitrate fixed.
[11] abbreviates: DL-isocitrate, metal not given (wild-type is the Mn2+ value).

Substitutions are numbered along the chain they refer to. Names may count otherwise.

Take PtIDH2 V609L mutant (enzyme): in data set [1], the stoichiometry N is 4.

As for “Phaeodactylum tricornutum NADP+-specific isocitrate dehydrogenase 2 (PtIDH2), mature form without the signal and transit peptide (enzyme)”, the stoichiometry N in data set [2] turned out to be 2; in data set [3], 4; in data set [4] it was 4.

Turning to PtIDH2 A718P mutant (enzyme), the stoichiometry N in data set [5] came out at 4.

Consider PtIDH2 L742F mutant (enzyme), for which, in data set [6], the stoichiometry N turned out to be 4.

B1: PtIDH2 (Phaeodactylum tricornutum CCAP 1055/1) (protein)
chain: PPTSNHRHQPLEHARGSILYTETDEAPALATFSLYPVISKFSALANVDIVPCDISVAGRVLAAFPECLKPSQRVPDNLSYLGKKALEADCAIVKLPNISAPLNQLLECVNELRHKGYDVPLYPHEPSNVEETDVKHRYDKLMGSAVNPVLREGNSDRRVAAPVKAYAQKNPHRMGLWSKASRTHVAHMETGDFYETEQSAVMALPTSVSIVLATKNEGEIVLKAETPLEEGEVVDASRMSVKSLRDFYEREMQDAKDSELMLSLHLKATMMKVSDPIMFGHAIRVFFQDAFDKHGEVLASIGANPNGGLGSVYETIKSKLPADQAATIQADFEACFEDRPWLAMVDSDKGITNLHAPNDIIIDASMPVVVRDSGKMWNKLGELEDVKCLIPDRCYATMYQEVLSYVKTKGQFDVATMGSVANVGLMAKKAEEYGSHDKTFEIPSDGRVVVKDNNTGEVYFEHVVNAGDVWRMCQTKDVAIRDWVRLAVERARATGDRTIFWLDKRRAHDASLIKKVNTYLKDHDTDGLDISIMRPVDAVRISMERATDGKNTISVTGNVLRDYLTDLFPILELGTSAKMLSIVPLLAGGGLYETGAGGSAPKHVQQFVKEGHLRWDSLGEYLALAVALEGLADTAGNPKAKILGDCLNKAVGRILTNRKSPSRVVNQIDNRATNFYVSLYWADFLQQEDPSYKAIFESLTENRGKIVEEFSQCQGTAVDLGGYYLFDPAKTKAAMNPSPTLNKILSSFGPDMN
notes: mature form without putative signal and transit peptide (residues 1-58 of 811 removed), 753 residues, codon-optimized, 6xHis tag from pET-28b (NdeI/XhoI), E. coli Rosetta (DE3); ~80 kDa subunit (theoretical ~82 kDa), ~320 kDa homotetramer; N-term of insert after Met: FRSSTVL (from primer); C-term SSFGPDMN (from primers)
In the case of B1, the Km in [7] was determined as 42.69 ± 8.2 µM. Further, in [8] (setting [10]), the Km came out at 37.37 ± 4.02 µM, the kcat is 119 ± 11 s⁻¹ and the catalytic efficiency (kcat/Km) was found to be 3.22e+06 M⁻¹ s⁻¹.

B2: PtIDH2 (Phaeodactylum tricornutum CCAP 1055/1; H661L/K660T/R672D/R721S) (protein)
chain: B1 chain with K602T, H603L, R614D, R663S
notes: as for B1
On to B2, for which, in data set [9], the Km is reported as 11,479 ± 299 μM, the turnover number (kcat) was 2.25 ± 0.18 s⁻¹ and the kcat/Km is 200 M⁻¹ s⁻¹.

B3: PtIDH2 (Phaeodactylum tricornutum CCAP 1055/1; H661L/R672D/R721S) (protein)
chain: B1 chain with H603L, R614D, R663S
notes: as for B1
Take B3: in data set [9], the Km is recorded as 5,825 ± 307 μM, the turnover number (kcat) was 7.67 ± 1.04 s⁻¹ and the kcat/Km amounted to 1300 M⁻¹ s⁻¹. In data set [8] (setting [11]), the Km is given as 2,704 ± 142.8 μM, the kcat stood at 1.01 ± 0.07 s⁻¹ and the kcat/Km was found to be 400 M⁻¹ s⁻¹.

B4: PtIDH2 (Phaeodactylum tricornutum CCAP 1055/1; H661L/R672D) (protein)
chain: B1 chain with H603L, R614D
notes: as for B1
On to B4, for which, in data set [9], the Km is given as 10,271 ± 1,448 μM, the kcat is 7.22 ± 0.6 s⁻¹ and the kcat/Km is 700 M⁻¹ s⁻¹. Moreover, in data set [8] (setting [11]), the Km was 47,650 ± 8,344 μM, the kcat was found to be 22.1 ± 5.5 s⁻¹ and the specificity constant (kcat/Km) came out at 500 M⁻¹ s⁻¹.

A word on the stoichiometry N: it is the number of molecules, sites or subunits per partner or assembly. What is called Km is the substrate concentration at which the rate is half of its maximum. In general, kcat refers to the number of substrate molecules converted per active site and unit of time at saturation. As a reminder, the kcat/Km is the second-order rate constant that governs catalysis at low substrate concentration.
